Consider two substances from US20160280794A1.

Usually EC50 stands for the concentration needed to bring the measured effect to its halfway point. A high value points to a less potent agent.

In this experiment the target is Ramos (human) (UniProt P11836). The experiment in a line: FACS binding; Ramos cells. A general note: Flow cytometry measures light scatter and fluorescence of single cells or particles in a stream.
Sequence of Ramos (human) (P11836 whole entry): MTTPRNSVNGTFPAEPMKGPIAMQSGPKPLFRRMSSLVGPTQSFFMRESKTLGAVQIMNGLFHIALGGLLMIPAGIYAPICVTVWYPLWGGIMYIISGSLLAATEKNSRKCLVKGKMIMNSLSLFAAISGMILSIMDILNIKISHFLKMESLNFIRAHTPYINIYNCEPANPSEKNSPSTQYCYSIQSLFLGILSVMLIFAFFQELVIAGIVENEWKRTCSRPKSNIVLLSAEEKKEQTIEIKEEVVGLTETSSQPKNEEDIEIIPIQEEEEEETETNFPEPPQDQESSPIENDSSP

Regarding Rituxan-SCT, the EC50 came to 1.2 µg/mL.
Consider Rituxan-GlcNAc, for which the EC50 is 1.54 µg/mL.
